Where a chain is given by its changes, count along the chain named. Read-outs that look alike come from different tables or passages of the source.
What was measured:
hPD-1-Fc [1] = target: T1, hPD-1-Fc (human, UniProt Q15116 25-167); assay: ELISA, hPD-1-Fc coated
T1 construct: domain: IgV domain; also called human PD-1-Fc; not shown: human IgG1 Fc

hPD-1-his [2] = target: T2, hPD-1-his (human, UniProt Q15116 25-167); assay: ELISA, captured hPD-1-his
T2 construct: domain: IgV domain; monomer in solution; biotin-labelled where captured by streptavidin; also called biotin-hPD-1-his
T2 sequence (Q15116 other isoform, or with tags, fused parts or gaps limits assumed): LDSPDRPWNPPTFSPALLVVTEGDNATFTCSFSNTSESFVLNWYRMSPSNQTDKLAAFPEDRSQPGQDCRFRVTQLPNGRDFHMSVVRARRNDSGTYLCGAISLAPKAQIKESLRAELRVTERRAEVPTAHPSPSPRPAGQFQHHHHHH

[3] = target: T3, human PD-1 expressed on cells (human, UniProt Q15116 25-288); assay: flow cytometry, hPD1-293 cells
T3 construct: whole, on cells
T3 sequence (Q15116 25-288): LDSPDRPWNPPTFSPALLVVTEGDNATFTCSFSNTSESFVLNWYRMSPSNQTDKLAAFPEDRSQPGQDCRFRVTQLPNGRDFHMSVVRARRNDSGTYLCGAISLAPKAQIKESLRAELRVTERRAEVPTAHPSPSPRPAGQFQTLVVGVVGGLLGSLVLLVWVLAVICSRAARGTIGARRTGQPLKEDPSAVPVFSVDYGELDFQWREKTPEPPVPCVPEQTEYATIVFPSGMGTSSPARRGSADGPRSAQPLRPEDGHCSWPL

hPD-1-Fc [4] = target: T1, hPD-1-Fc; assay: blocking ELISA, hPD-1-Fc to hPD-L1-Fc
[5] = target: T3, human PD-1 expressed on cells; assay: flow cytometry, SEB-activated PBMC donor three
[6] = target: T3, human PD-1 expressed on cells; assay: flow cytometry, SEB-activated PBMC donor one
hPD-1-Fc [7] = target: T1, hPD-1-Fc; assay: ELISA, hPD1-Fc coated
hPD-1-his [8] = target: T2, hPD-1-his; assay: ELISA, hPD-1-his on anti-his
hPD-1-Fc [9] = target: T1, hPD-1-Fc; assay: blocking ELISA, hPD-1-Fc to hPD-L1-Fc; remark: listed apart in the source
hPD-1-his [10] = target: T2, hPD-1-his; assay: ELISA, biotin-hPD-1-his on streptavidin
[11] = target: T3, human PD-1 expressed on cells; assay: cell-based or functional assay
hPD-1-Fc [12] = target: T1, hPD-1-Fc; assay: ELISA, hPD-1-Fc coated; remark: listed apart in the source
hPD-1-his [13] = target: T2, hPD-1-his; assay: ELISA, PD-1-his on anti-his
hPD-1-his [14] = target: T2, hPD-1-his; assay: ELISA, PD-1-his on streptavidin
hPD-1-Fc [15] = target: T1, hPD-1-Fc; assay: blocking ELISA, hPD-1 to hPD-L1; design: unit not given here

T1 sequence (Q15116 25-167 limits assumed): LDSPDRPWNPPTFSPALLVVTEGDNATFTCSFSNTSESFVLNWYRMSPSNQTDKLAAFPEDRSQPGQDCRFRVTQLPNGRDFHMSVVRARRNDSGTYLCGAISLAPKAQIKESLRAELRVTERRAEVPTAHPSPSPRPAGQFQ

B1: 23A11 (antibody, human IgG1, V domains shown)
VH: QVQLVQSGAEVKKPGSSVKVSCKASGYTFTDYSLHWVRQAPGQGLEWMGEVIPMFDTAYYAQTFQGRVTITADESTSTAYMELSSLRSEDTAVYYCAREPFTMVRGGRYYYYGMDVWGQGTTVTVSS
VL: DIQMTQSPSSLSASVGDRVTITCRASQNINKNLNWYQQKPGKAPKLLIYDASNLQSGVPSRFSGSGSGTDFTLTISSLQPEDFATYYCQHSETFGQGTKVEIK
For B1, the EC50 (hPD-1-Fc [1]) was 0.167 nM, the “OD at 10 nM” value (hPD-1-Fc [1]) was 2.04 OD450 and the EC50 (hPD-1-his [2]) was 1 nM. The “OD at 10 nM” value (hPD-1-his [2]) was 0.27 OD450, the “MFI at 68 nM” value [3] was 21.8 MFI and the IC50 (hPD-1-Fc [4]) was 2.61 nM. The “Inhibition % (3.3 nM)” value (hPD-1-Fc [4]) was 54.9%, the “Inhibition % (30 nM)” value (hPD-1-Fc [4]) was 86.6% and the EC50 [5] was 13.4 nM. For the same binder, the “MFI at 100 nM” value [5] was 46.2 MFI, the EC50 [6] was 19 nM and the “MFI at 100 nM” value [6] was 14.6 MFI.

B2: 33G8 (antibody, V domains shown)
VH: QVQLVQSGAEVKKPGSSVKVSCKASGGTFSSSVISWVRQAPGQGLEWMGGIIPIFGTANYAQKFQGRVTITADESTSTAYMELSSLRSEDTAVYYCAREGLGCSGGSCYSGYYYGMDVWGQGTTVTVSS
VL: DIVMTQSPLSLPVTPGEPASISCRSSQSLLHSNGYNYLDWYLQKPGQSPQLLIYQASTLGSGVPDRFSGSGSGTDFTLKISRVEAEDVGVYYCMQGTHWPYTFGQGTKLEIK
For B2, the EC50 (hPD-1-Fc [7]) was 0.113 nM, the “OD450 at 10 nM” value (hPD-1-Fc [7]) was 0.9 OD450 and the EC50 (hPD-1-his [8]) was 0.149 nM. The “OD450 at 10 nM” value (hPD-1-his [8]) was 0.487 OD450, the IC50 (hPD-1-Fc [9]) was 1.81 nM and the “Inhibition % at 5.6 nM” value (hPD-1-Fc [9]) was 89.9%. The “Inhibition % at 50 nM” value (hPD-1-Fc [9]) was 90.5%, the EC50 (hPD-1-his [10]) was 0.197 nM and the “OD450 at 10 nM” value (hPD-1-his [10]) was 0.909 OD450.

B3: 34C1 (antibody, V domains shown)
VH: B2 VH
VL: DIVMTQSPLSLPVTPGEPASISCRSSESLLYSNGNTYLDWYLQKPGQSPQLLIYEVSNRASGVPDRFSGSGSGTDFTLKISRVEAEDVGVYYCMQGTRWPYTFGQGTKVEIK
B3 was tested, and the EC50 (hPD-1-Fc [7]) was 0.147 nM, the “OD450 at 10 nM” value (hPD-1-Fc [7]) was 0.926 OD450 and the EC50 (hPD-1-his [8]) was 0.0866 nM. The “OD450 at 10 nM” value (hPD-1-his [8]) was 0.521 OD450, the IC50 (hPD-1-Fc [9]) was 2.01 nM and the “Inhibition % at 5.6 nM” value (hPD-1-Fc [9]) was 89.1%. The “Inhibition % at 50 nM” value (hPD-1-Fc [9]) was 89.3%, the EC50 (hPD-1-his [10]) was 0.233 nM and the “OD450 at 10 nM” value (hPD-1-his [10]) was 0.945 OD450.

B4: 23A8 (antibody, human IgG1, V domains shown)
VH: EVQLLESGGGLVQPGGSLRLSCAASGFTFSSSAMHWVRQAPGKGLEWVSGISGSGSSTYYADSVKGRFTISRDNSKNTLYLQMNSLRAEDTAVYYCARDNNYYYYMDVWGKGTTVTVSS
VL: DIQMTQSPSSLSASVGDRVTITCRASQSIGTWLAWYQQKPGKAPKLLIYAASTLRSGVPSRFSGSGSGTDFTLTISSLQPEDFATYYCQQSYSTPYTFGQGTKLEIK
With B4 the EC50 (hPD-1-Fc [1]) was 0.135 nM, the “OD at 10 nM” value (hPD-1-Fc [1]) was 1.74 OD450 and the “EC 50, Promega PD-1/PD-L1 blockade bioassay” value [11] was 4.73 µg/mL. The Fold of induction [11] was 2.81 fold, the EC50 (hPD-1-his [2]) was 0.523 nM and the “OD at 10 nM” value (hPD-1-his [2]) was 1.15 OD450. For the same binder, the EC50 [3] was 0.299 nM, the “MFI at 68 nM” value [3] was 105 MFI and the IC50 (hPD-1-Fc [4]) was 1.85 nM. The “Inhibition % (3.3 nM)” value (hPD-1-Fc [4]) was 80.5%, the “Inhibition % (30 nM)” value (hPD-1-Fc [4]) was 93.1% and the EC50 [5] was 1.89 nM. The “MFI at 100 nM” value [5] was 80.3 MFI, the EC50 [6] was 1.51 nM and the “MFI at 100 nM” value [6] was 19.9 MFI.

B5: 19B10 (antibody, human IgG1, V domains shown)
VH: EVQLLESGGGLVQPGGSLRLSCAASGFTFSSYAMHWVRQAPGKGLEWVSGISNSGGNTYYADSVKGRFTISRDNSKNTLYLQMNSLRAEDTAVYYCARDNYYYYMDVWGKGTTVTVSS
VL: B4 VL with I29V, G30S, T53N, R55E, S56T, S91T
With B5 the EC50 (hPD-1-Fc [1]) was 0.188 nM, the “OD at 10 nM” value (hPD-1-Fc [1]) was 1.73 OD450 and the EC50 (hPD-1-his [2]) was 5.34 nM. The “OD at 10 nM” value (hPD-1-his [2]) was 0.38 OD450, the EC50 [3] was 16 nM and the “MFI at 68 nM” value [3] was 45.1 MFI. The IC50 (hPD-1-Fc [4]) was 28.1 nM, the “Inhibition % (3.3 nM)” value (hPD-1-Fc [4]) was 22.9% and the “Inhibition % (30 nM)” value (hPD-1-Fc [4]) was 65.2%. The EC50 [5] was 104 nM, the “MFI at 100 nM” value [5] was 25.2 MFI and the EC50 [6] was 117 nM. For the same binder, the “MFI at 100 nM” value [6] was 12.4 MFI.

B6: 19B6 (antibody, V domains shown)
VH: QVQLVQSGAEVKKPGASVKVSCKASGYTFTGYYMHWVRQAPGQGLEWMGIINPSGGSTSYAQKFQGRVTMTRDTSTSTVYMELSSLRSEDTAVYYCAKTAGYDWLPSGLGMDVWGQGTTVTVSS
VL: B4 VL with G30N, T31S, A50Y, T53S, R55Q, S91G, T94V, Y96L, T97S
For B6, the EC50 (hPD-1-Fc [1]) was 0.168 nM, the “OD at 10 nM” value (hPD-1-Fc [1]) was 1.81 OD450 and the “EC 50, Promega PD-1/PD-L1 blockade bioassay” value [11] was 2.13 µg/mL. The Fold of induction [11] was 3.04 fold, the EC50 (hPD-1-his [2]) was > 100 nM and the “OD at 10 nM” value (hPD-1-his [2]) was 0.3 OD450. The “MFI at 68 nM” value [3] was 20.8 MFI, the IC50 (hPD-1-Fc [4]) was 2.69 nM and the “Inhibition % (3.3 nM)” value (hPD-1-Fc [4]) was 51.9%. The “Inhibition % (30 nM)” value (hPD-1-Fc [4]) was 85.9%, the EC50 [5] was 10.7 nM and the “MFI at 100 nM” value [5] was 51.2 MFI. For the same binder, the EC50 [6] was 13.6 nM and the “MFI at 100 nM” value [6] was 13.7 MFI.

B7: 32A11 (antibody, V domains shown)
VH: EVQLLESGGGLVQPGGSLRLSCAASGFTFSSYWMSWVRQAPGKGLEWVSAISGSGGSTYYADSVKGRFTISRDNSKNTLYLQMNSLRAEDTAVYYCASSPLQWVDVWGQGTTVTVSS
VL: DIQMTQSPSSLSASVGDRVTITCRASESISIWLAWYQQKPGKAPKLLIYDASNLETGVPSRFSGSGSGTNFTLTISSLQPEDFATYYCQQADSFPFTFGPGTKVDIK
In the case of B7, the “OD at 10 nM” value (hPD-1-Fc [12]) is reported as 0.921 OD, the “OD at 10 nM” value (hPD-1-his [13]) is reported as 1.03 OD and the “OD at 10 nM” value (hPD-1-his [14]) is reported as 0.919 OD. For the same binder, the “Inhibition at 50 nM” value (hPD-1-Fc [15]) was 91.1.
